Measurements from patent US5958721.

Target: rabbit MAP kinase kinase (MAPKK) (rabbit) (UniProt P29678)

ΔRaf-1 (human Raf-1 lacking the first 324 amino acids) (from UniProt P04049) (enzyme)
MAPKK phosphorylation in S. pombe (32P-orthophosphate labelling, immunoprecipitation, phosphorimager): > 5 fold
